Experiment [1] deals with T1, Human Mpl-IgG Fc fusion protein (hMpl-Fc) (human, UniProt P40238 26-491).
T1 construct: range 26-491; Expressed in CHO-DG44 cells with a 19-amino acid signal peptide from a human IgG H chain variable region, which is not part of the mature protein; No numbering scheme is named for Asp 216; also called shMPL-Fc; not shown: Fc region of human IgG-gamma1, a region downstream of Asp 216
T1 sequence: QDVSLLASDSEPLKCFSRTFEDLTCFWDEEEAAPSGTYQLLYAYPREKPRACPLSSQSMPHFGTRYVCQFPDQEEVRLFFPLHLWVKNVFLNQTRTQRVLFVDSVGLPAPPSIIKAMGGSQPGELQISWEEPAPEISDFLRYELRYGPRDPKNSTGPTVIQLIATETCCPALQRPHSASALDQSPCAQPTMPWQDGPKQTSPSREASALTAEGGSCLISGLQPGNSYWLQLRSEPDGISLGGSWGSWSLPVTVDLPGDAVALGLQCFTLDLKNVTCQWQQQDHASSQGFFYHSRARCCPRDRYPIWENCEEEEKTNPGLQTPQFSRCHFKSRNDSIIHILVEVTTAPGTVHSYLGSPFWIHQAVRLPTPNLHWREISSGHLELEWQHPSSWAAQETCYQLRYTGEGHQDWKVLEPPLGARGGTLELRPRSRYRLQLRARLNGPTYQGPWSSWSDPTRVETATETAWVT
Nature of the experiment: ELISA on plates coated with hMpl-Fc, sc(Fv)2 detected by anti-FLAG M2. The procedure: (§1) The binding activity of anti-human Mpl single-chain antibody to hMPL-Fc was assessed using ELISA. After plates were coated with 0.5 μg/ml purified hMPL-Fc, blocking treatment was carried out using Diluent buffer. A purified product of VA130 was diluted to an appropriate concentration and added to the plates. Then, the plates were allowed to stand at room temperature for one hour. After washing with Rinse buffer, 1000-times-diluted ANTI-FLAG M2 Monoclonal Antibody (SIGMA-ALDRICH) was added. The plates were incubated at room temperature for one hour. Next, after washing with Rinse buffer, 1000-times-diluted Alkaline Phosphatase-labeled anti-mouse IgG antibody (Zymed) was added, and the plates were allowed to stand at room temperature for one hour. After washing with Rinse buffer, color development was achieved using SIGMA104 (SIGMA-ALDRICH) diluted to 1 mg/ml in substrate buffer. Color was developed for 15 minutes at room temperature and then absorbance was determined at 405 nm with Benchmark Plus.
(In general: ELISA stands for enzyme-linked immunosorbent assay.)

For experiment [2], the target named is human Mpl expressed on BaF3 cells (BaF3-human Mpl) (human) (UniProt P40238). Nature of the experiment: cell-based or functional assay.
In experiment [3] the target is T1, Human Mpl-IgG Fc fusion protein …. The experiment can be described thus: ELISA on plates coated with hMpl-Fc, diabody detected by anti-FLAG M2. As to the method: as §1
Experiment [4] shares this target. Nature of the experiment: ELISA on plates coated with hMpl-Fc, IgG.
Experiment [5] has as its target T2, human Mpl expressed on BaF3 cells (BaF3-human Mpl) (human, UniProt P40238 26-635).
T2 sequence (looked up): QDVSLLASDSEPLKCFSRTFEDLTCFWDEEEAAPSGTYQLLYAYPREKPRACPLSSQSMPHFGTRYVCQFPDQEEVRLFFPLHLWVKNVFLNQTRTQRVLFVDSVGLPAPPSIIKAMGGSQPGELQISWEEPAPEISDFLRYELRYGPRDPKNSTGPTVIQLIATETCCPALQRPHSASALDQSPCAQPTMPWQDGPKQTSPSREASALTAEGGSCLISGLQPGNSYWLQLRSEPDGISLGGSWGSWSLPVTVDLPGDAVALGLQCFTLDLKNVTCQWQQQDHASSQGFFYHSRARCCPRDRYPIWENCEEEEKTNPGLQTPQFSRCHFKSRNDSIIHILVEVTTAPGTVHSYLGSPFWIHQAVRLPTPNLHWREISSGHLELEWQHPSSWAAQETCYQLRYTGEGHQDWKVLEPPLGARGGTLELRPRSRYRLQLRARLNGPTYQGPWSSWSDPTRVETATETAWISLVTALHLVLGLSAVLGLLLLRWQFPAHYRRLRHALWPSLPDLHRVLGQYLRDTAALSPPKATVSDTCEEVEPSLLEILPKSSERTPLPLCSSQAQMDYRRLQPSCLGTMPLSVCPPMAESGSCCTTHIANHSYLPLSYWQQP
The experiment can be described thus: cell-based or functional assay.

Positions count from the first letter of the chain named.

Here are results for four molecules from patent publication US20070281327A1 (published 2007).

B1: VA130 sc(Fv)2 (other)
chain: QVQLQQSGPELVKPGASVKISCKASGYAFSSSWMNWVKQRPGKGLEWIGRIYPGDGDTNYNGKFKGKATLTADKSSSTAYIQLSSLTSEDSAVYFCARGYADYSFAYWGQGTLVTVSAGGGGSGGGGSGGGGSDIVMTQAAPSVPVTPGESVSISCRSSKSLLHSNGNTYLYWFLQRPGQSPQLLIYRMSNLASGVPDRFSGSGSGTAFTLRISRVEAEDVGVYYCMQHLEYPYTFGSGTKLEIKGGGGSGGGGSGGGGSQVQLQQSGPELVKPGASVKISCKASGYAFSSSWMNWVKQRPGKGLEWIGRIYPGDGDTNYNGKFKGKATLTADKSSSTAYIQLSSLTSEDSAVYFCARGYADYSFAYWGQGTLVTVSAGGGGSGGGGSGGGGSDIVMTQAAPSVPVTPGESVSISCRSSKSLLHSNGNTYLYWFLQRPGQSPQLLIYRMSNLASGVPDRFSGSGSGTAFTLRISRVEAEDVGVYYCMQHLEYPYTFGSGTKLEIKDYKDDDDK
notes: A single polypeptide with two VH and two VL units from VA130; also called anti-human Mpl antibody sc(Fv)2; VA130 single-chain antibody
A word on the EC50: it is the concentration at which the effect is half-maximal. As for B1, in experiment [1], the EC50 amounted to 270 pM. The Agonistic activity, Analysis using Baf-hMpl (EC50) in experiment [2] came out at 1020 pM.

B2: VA130 diabody (VA130 single-chain Fv with a five-amino acid (Gly4Ser)1 linker, FLAG-tagged) (scFv)
scFv: QVQLQQSGPELVKPGASVKISCKASGYAFSSSWMNWVKQRPGKGLEWIGRIYPGDGDTNYNGKFKGKATLTADKSSSTAYIQLSSLTSEDSAVYFCARGYADYSFAYWGQGTLVTVSAGGGGSDIVMTQAAPSVPVTPGESVSISCRSSKSLLHSNGNTYLYWFLQRPGQSPQLLIYRMSNLASGVPDRFSGSGSGTAFTLRISRVEAEDVGVYYCMQHLEYPYTFGSGTKLEIKDYKDDDDK
notes: The order is VH-(Gly4Ser)1-VL-FLAG; also called VA130 db
In experiment [2], B2 displayed an Agonistic activity, Analysis using Baf-hMpl (EC50) of 222 pM. Besides, the EC50 in experiment [3] is 110 pM.

B3: VA130 IgG (mouse monoclonal anti-human Mpl antibody VA130) (antibody, V domains shown)
VH: QVQLQQSGPELVKPGASVKISCKASGYAFSSSWMNWVKQRPGKGLEWIGRIYPGDGDTNYNGKFKGKATLTADKSSSTAYIQLSSLTSEDSAVYFCARGYADYSFAYWGQGTLVTVSA
VL: DIVMTQAAPSVPVTPGESVSISCRSSKSLLHSNGNTYLYWFLQRPGQSPQLLIYRMSNLASGVPDRFSGSGSGTAFTLRISRVEAEDVGVYYCMQHLEYPYTFGSGTKLEIK
notes: Whole mouse IgG from a hybridoma; also called VA130 antibody; VA130 anti-human Mpl antibody
On to B3, for which the EC50 in experiment [4] came to 380 pM. Further, the “TPO-like agonist activity, BaF3-human Mpl proliferation (WST-8), EC50” value in experiment [5] is above 100000 pM.

B4: VB16 IgG (mouse monoclonal anti-human Mpl antibody VB16) (antibody, V domains shown)
VH: QVQLQQPGTELVRPGASVKLSCKASGYTFTDYWVNWVKQRPGRGLEWIGRIHPYDSETHYNQKFKNKATLTVDKSSSTAYIQLSSLTSEDSAVYYCASGGWFASWGQGTLVTVSA
VL: B3 VL with H31Y, R79T, R82S
In turn, B4 showed an EC50 in experiment [4] of 150 pM.
